# Data as given in the nanobody polyreactivity screen of Harvey et al. (2022).
# Experiment: yeast display, Sf9 membrane polyspecificity reagent, FACS + sequencing; frameworks hold sequencing errors
# Summary of the method: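 A nanobody's polyreactivity label depends on the gate it was sorted from. Yeast display cells were stained with 10% biotinylated, detergent-solubilized Sf9 membrane reagent for 1 hour at 4 °C, enriched on streptavidin microbeads and sorted by FACS. The low and high (top ~1%) gates were set on anti-HA fluorescence for expression and streptavidin fluorescence for reagent binding.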
row,Sequence,polyreactivity (PSR sort gate)
1,QVQLVESGGGLVQAGGSLRLSCAASGFTFPIYAMGWSRQAPGKEWELVAAISKGGARTYYADSVKGRFTISRDNAKNTVYLQMNSLNPEDTAVYYCAALGPGGWYDYWGQGTQVTVSS,high polyreactivity
2,QVQLVESGGGLVQAGGSLRLSCAASGFTFPLYAMGWYRQAPGKERELVASISSRGGSTYYADSVKGRFTISRDNAKNTVYLQMNSLKPEDTAVYYCARSTSRYYYWGQGTQVTVSS,high polyreactivity
3,QVQLVESGGGLVQAGGSLRLSCAASGFTFPLYAMGWYRQAPGKETELVATISSSGSTYYADSVKGRFTISRDNAKNTVYLQMNSLKPEDTAVYYCIAAIQSYEGSGRYFRFDYWGQGTQVTVSS,low polyreactivity
4,QVQLVESGGGLVQAGGSLRLSCAASGFTFPRNTMGWYRQAPGKERELVAVISRSGGRSYYADSVKGRFTISRDNAKNTVYLQMNSLKPEDTAVYYCAADTSVRFDYWGQGTQVTVSS,high polyreactivity
5,QVQLVESGGGLVQAGGSLRLSCAASGFTFPRYAMGWYRQAPGKERELVAVITRRGGSTYYADSVKGRFTISRDNAKNTVYLQMNSLKPEDTAVYYCAARQYSYNGGYGYWGQGTQVTVSS,high polyreactivity
6,QVQLVESGGGLVQAGGSLRLSCAASGFTFPRYAMVWYRQAPGKERELVAAINRGGSTYYADSVKGRFTISRDNAKNTVYLQMNSLKPEDTAVYYCARARPVDTVGYVTVSGDYEFDYWGQGTQVTVSS,low polyreactivity
7,QVQLVESGGGLVQAGGSLRLSCAASGFTFPSNAMGWYRQAPGKERELVAAISSTDSTNYADSVKGRFTISRDNAKNTVYLQMNSLKPEDTAVFYCNADRDDDYDYWGQGTQVTVSS,low polyreactivity
8,QVQLVESGGGLVQAGGSLRLSCAASGFTFPSYAMGWYRQAPGKERELVAVISRRGGSTYYADSVKGRFTISRDNAKNTVYLQMNSLKPEDTAVYYCNAPYYVFITFDYWGQGTQVTVSS,high polyreactivity
9,QVQLVESGGGLVQAGGSLRLSCAASGFTFPSYPMGWYRQAPGKETELVAVISWGGTSTYYADSVKGRFTISRDNAKNTVYLQMNSLKPEDTAVYYCNRPSRYASTSRGYGYWGQGTQVTVSS,high polyreactivity
10,QVQLVESGGGLVQAGGSLRLSCAASGFTFPVNAMGWYRQAPGKERELVAAITKRGGGTYYADSVKGRFTISRDNAKNTVYLQMNSLKPEDTAVYYCAARSFWPYYGGDYDYWGQGTQVTVSS,high polyreactivity
11,QVQLVESGGGLVQAGGSLRLSCAASGFTFPVYTMGWYRQAPGKERELVAAISTSGAGTYYADSVKGRFTISRDNAKNTVYLQMNSLKPEDTAVYYCAAYKRGRPEMYYWGQGTQVTVSS,high polyreactivity
12,QVQLVESGGGLVQAGGSLRLSCAASGFTFPYYAKGWYRQAPGKERELVAASTYSGDSTDYADSVKGRFTISRDNAKNTVYLQMNSLKPEDTAVYYCNVTPDCAVTDDYWGQGTQVTVSS,low polyreactivity
13,QVQLVESGGGLVQAGGSLRLSCAASGFTFPYYAMGWYREAPGKERELVAAISFSGGRTYYADSVKGRFTISRDNAKNTVYLQMNSLKPEDTAVYYCAAAKTYYRYNYWGQGTQVSVSS,high polyreactivity
14,QVQLVESGGGLVQAGGSLRLSCAASGFTFPYYAMGWYRQAPGKERELVAAISRNGGSTYYADSVKGRFTISRDNAKNTVYLQMNSLKPEDTAVYYCAARYRYWGGSGFKGFDYWGQGTQVTVSS,high polyreactivity
15,QVQLVESGGGLVQAGGSLRLSCAASGFTFPYYAMGWYRQAPGKERELVAAITYSGDSTYYADSVKGRFTISRDNAKNTVYLQMNSLKPEDTAVYYCNVTPDWAVTDDYWGQGTQVTVSS,low polyreactivity
16,QVQLVESGGGLVQAGGSLRLSCAASGFTFQGNVMGWYRQAPGKERELVAVITSGGSTYYADSVKGRFTISRDNAKNTVYLQMNSLKPEDTAVYYCAKLYNSYTWKYGYWGQGTQVTVSS,high polyreactivity
17,QVQLVESGGGLVQAGGSLRLSCAASGFTFQGYVMGWYRQAPGKERELVARITNDGSTTYADSVKGRFTISRDNAKNTVYLQMNTLKPEDTAVYYCARPYRFWRYYGMYYWGQGTQVTVSS,high polyreactivity
18,QVQLVESGGGLVQAGGSLRLSCAASGFTFQPYAMGWYRQAPGKERELVAAINWSSGRTYYADSVKGRFTISRDNAKNTVYLEMNCLKPEDTAVYYCNTRSTLGYYWGQGTQVTVSS,high polyreactivity
19,QVQLVESGGGLVQAGGSLRLSCAASGFTFQTYAMGWYRQAPGKERELVATINSSGGGTYYADSVKGRFTISRDNAKNTVYLQMNSLKPEDTAVDYCAADAVWFVGQAFDISDSTTYGYWGQGTQVTVSS,low polyreactivity
20,QVQLVESGGGLVQAGGSLRLSCAASGFTFQVYAMGWYRQAPGKERELVADITESGDSTYYADSVKGRFTISRDNAKNTVYLQMNSLKPEDTAVYYCAADGGWFWSLFYTFAFDYWGQGTQVTVSS,low polyreactivity
21,QVQLVESGGGLVQAGGSLRLSCAASGFTFQYNAMGWYRQAPGKERELVAAITWTGTSTYAYSVKGRFTISRDNAKNTVYLQLNSVKPDDTGVYYCAARYYAPRWFRYDYWGQGTQVTVSS,low polyreactivity
22,QVQLVESGGGLVQAGGSLRLSCAASGFTFQYYAMGWYRQAPGKERELVAAISRGGSTNYADSVKGRFTISRDNAKNTVYLQMNSLKPEDTAVYYCARLGWTYLWGYDSWGQGTQVTVSS,high polyreactivity
23,QVQLVESGGGLVQAGGSLRLSCAASGFTFRANAMGWYRQAPGKERELVAAISQSGGRTNYADSVKGRFTISRDNAKNTVYLQMNSLKPEDTAVYYCAAPYSAKELYYRMDYWGQGTQVTVSS,high polyreactivity
24,QVQLVESGGGLVQAGGSLRLSCAASGFTFRANGMGWYRQAPGKERELVATITSGGTTNYADSVKGRFTISRDNAKNSVYLQMNSLIPEDTAVYYCAKRFGPAYFRLYDYWGQGTQVTVSS,low polyreactivity
25,QVQLVESGGGLVQAGGSLRLSCAASGFTFRANGMGWYRQAPGKETELVATITSGGTTNYADSVKGRFTISRDNAKNTVYLQMNSLKPEDTAVYYCAKRFGPAYFRLYDYWGQGTQVTVSS,low polyreactivity
26,QVQLVESGGGLVQAGGSLRLSCAASGFTFRAYAMGWYRQAPGKEREFVAAISYSGGSTYYADSVKGRFTISRDNAKNTVDLQMNSLKPEDTAVYYCATVLYSVPRYNYWGQGTQVTVSS,high polyreactivity
27,QVQLVESGGGLVQAGGSLRLSCAASGFTFRDNAMGWYRQAPGKEWELVAAITWDGGSTYYADSVKGRFTISRDNAKNTVYLQMNSLKPEDTAVYYCAASRYYPRYFKRYYYWGQGTQVTVSS,high polyreactivity
28,QVQLVESGGGLVQAGGSLRLSCAASGFTFRFYAMGWYRQAPGKERELVAAISRRGGTTYYADSVKGRFTISRDNAKNTVYLQMNSLKPEDTAVYYCNKDWTYEHGYWGQGTQVTVSS,high polyreactivity
29,QVQLVESGGGLVQAGGSLRLSCAASGFTFRGNAMGWYRQAPGKERELVATISRGGNTNYADSVKGRFTISRDNAKNTVYLLMNSLKPEDTAVYYFAAVSYIRSKVSYNYWGNGTQVTVSS,low polyreactivity
30,QVQLVESGGGLVQAGGSLRLSCAASGFTFRGNAMGWYRQAPVKERELVAAITSSDDSTYYADSVKGRFTISRDLSKNTVYLQMNSLKPEDTAVYYCAAVANGYWTYEYWGQGTQVTVSS,low polyreactivity
